Laboratory results reported in US10864251B2, “Peptides of syndecan-1 for inhibiting angiogenesis” (Wisconsin Alumni Research Foundation, priority 2006, dated 2020).
Like-named read-outs stand apart in the source and are kept apart here. Where no end group is shown, it is not given here.

B1: S1ED: recombinant mouse Sdc1 ectodomain (amino acids 18-251), expressed in bacteria as GST fusion or 6×His-tagged protein (protein)
chain: QPALPQIVAVNVPPEDQDGSGDDSDNFSGSGTGALPDTLSRQTPSTWKDVWLLTATPTAPEPTSSNTETAFTSVLPAGEKPEEGEPVLHVEAEPGFTARDKEKEVTTRPRETVQLPITQRASTVRVTTAQAAVTSHPHGGMQPGLHETSAPTAPGQPDHQPPRVEGGGTSVIKEVVEDGTANQLPAGEGSGEQDFTFETSGENTAVAAVEPGLRNQPPVDEGATGASQSLLDRK
modifications: left off: a dimerising Fc or GST
notes: recombinant mouse Sdc1 ectodomain (amino acids 18-251), expressed in bacteria as GST fusion or 6×His-tagged protein

Tests used:
[1] = system: FGF-induced angiogenesis in the mouse cornea; assay: Corneal pocket implant angiogenesis assay; format: in vivo
Procedure: FIG. 13—Inhibition of corneal angiogenesis by SSTN. PolyHEMA pellets (0.25 μL) containing 67 ng FGF-2 and sucralfate were implanted into the avascular mouse cornea. Alzet pumps containing PBS, 2500 μM mS1ED or a range of SSTN concentrations (0-100 μM) were implanted subcutaneously on the back of the animals and angiogenesis for 7 days. Fluorescent dextran was injected suborbitally for 2 min prior to sacrifice for observation of the vascular system in dissected cornea (picture insets). Total angiogenesis is quantified as total length of vessels growing from the limbic vessels at the margin of the cornea.
A polyhydroxyethylmethacrylate (PolyHEMA) pellet 1 μl in volume containing 100 ng FGF was implanted into pockets surgically prepared in the center of the avascular corneas of 6 wk-old Balb/c mice. Three mice were used as controls and three mice received a 0.2 ml Alzet osmotic pump implanted subcutaneously on the back of the mice. The pump was loaded with 100 μM synstatin82-130 in sterile saline and delivers 1 μl into the mouse per hr. The mice were allowed to recover and were maintained for seven days. The extent of angiogenesis was recorded by digital camera images of the living mouse. Fluorescent dextran was then injected into the vascular via retro-orbital injection 1-2 minutes prior to sacrifice. Corneas were surgically removed, mounted on slides and the extent of vascularization observed via fluorescence microscopy.
To test the efficacy of synstatin82-130 in vivo, the inventors have used the mouse corneal pocket implant angiogenesis assay. Here, angiogenesis is induced in the avascular mouse cornea by implantation of a polyHEMA pellet containing fibroblast growth factor (FGF), which is a potent angiogenic agent. The FGF will induce angiogenic outgrowth of new vessels from the limbic vessels at the margin of the cornea into the avascular region at the center of the cornea where the pellet is implanted. The inventors have tested recombinant S1ED by supplying it along with the FGF in the pellet implanted into the cornea, and have also introduced it into the systemic circulation of the mouse through the use of an osmotic pump placed subcutaneously on the back of the animal. The latter protocol more closely mimics the manner in which such an inhibitor might be delivered as a drug in patients. […] The concentration necessary for the block in vivo has not yet been measured. […] However, this is likely to be a high estimate, as clearance and degradation are likely to occur, and the protein is likely to be present in the greater volume of the mouse than just the vascular system.
Lastly, SSTN was tested in the in vivo corneal angiogenesis assay. Polyhydroxyethylmethylacrylate pellets (0.25 μL) containing 67 ng FGF-2 and sucralfate as a slow release agent were implanted into the avascular mouse cornea. After seven days, fluorescent dextran was injected suborbitally to highlight the vascular system and the mice were sacrificed. […] To supply the inhibitor in a more quantifiable and physiological manner, recombinant mS1ED or SSTN were delivered systemically via Alzet osmotic pumps implanted subcutaneously on the backs of the animals. […] To correlate this with the active concentration in the plasma, the inventors took advantage of rabbit polyclonal antibodies generated against mS1ED, which detect active SSTN on dot blots. […] Using this method to detect active SSTN in the blood collected from animals after 1 week of SSTN treatment, SSTN is shown to be in the blood at 125-150 nM when present at 10 μM in the osmotic pump.

segments of mouse aorta = format: cell-based; settings: for block of VEGF-induced outgrowth: 50 ng/ml VEGF, 7 days
Procedure: FIG. 12—SSTN blocks aortic ring angiogenesis. Aortic segments were explanted to collagen gels for 7 days in the presence of 50 ng/ml vascular endothelial cell growth factor (VEGF), or 30 ng/ml FGF-2 in the presence or absence of mS1ED or SSTN. Total outgrowth in quantified as the total length of all microvessels.
To test the activity of SSTN as an anti-angiogenic agent, the inventors turned to the in vitro aortic ring outgrowth assay and the in vivo corneal angiogenesis model. The aortic outgrowth assay allows quantification of microvessel outgrowth from segments of mouse aorta explanted to type I collagen gels. As was found when examining the mouse aortic endothelial cell line in culture, both syndecan-1 and the αvβ3 and αvβ5 integrins appear present even on the resting mouse aorta (FIG. 11A). In addition, microvessels growing out from the aortic explant over a 7 days period in response to FGF stain positively for syndecan-1, with appears co-expressed with the αvβ3 and αvβ5 integrins (FIG. 11B). To extend this finding of syndecan-1 expression in activated endothelium, the inventors also examined two models of mouse breast tumor formation. Tumors derived from wnt-1 overexpression in the mammary gland show a high degree of vascularization, identified as internal networks lined by a thick cell layer than stains intensely for syndecan-1 and for PECAM (CD31), indicative of activated endothelium (FIG. 11C). In fact, syndecan-1 expression in these cells swamps out the positive staining for syndecan-1 seen in the mammary epithelial cells, which are known to be positive for syndecan-1. These same cell layers as positive for αv, β3 and β5 integrin subunits. A similar finding is seen in tumors arising from overexpression of β-catenin (FIG. 11C). Although the vascularization is not as extensive as in the […] tumors, there are clear thickened layers of cells that are PECAM, syndecan-1 and αvβ3/αvβ5 integrin positive in these mammary tumors.
To test the effect of SSTN on microvessel outgrowth, segments of thoracic aorta were explanted to collagen gels in the presence of either 50 ng/ml vascular endothelial cell growth factor (VEGF) or 30 ng/ml FGF-2, and incubated in the presence of either recombinant mS1ED or SSTN. Although some vessel outgrowth is observed in the absence of exogenous angiogenic agents, likely due to VEGF release by supporting cells growing out from the explant, the outgrowth is greatly (≥10-fold) increased by FGF or VEGF (FIG. 12). Addition of recombinant mS1ED blocks VEGF-induced outgrowth by more than 70% at 10 μM, and greater than 95% at 30 μM. FGF induced outgrowth requires slightly higher inhibitory concentrations (approximately 30 μM mS1ED for 70% inhibition), which may trace to a difference in susceptibility of the two integrins, as VEGF signaling is reportedly coupled to αvβ5 integrin activation and FGF signaling is coupled to αvβ3 activation. […] It should be noted that the microvessel outgrowth is accompanied by the outgrowth of support cells, most likely smooth muscle cells and fibroblasts. […] Thus, the effects of SSTN are highly localized to the vascular endothelial cells.

Molecule	ill effects after one week of treatment ([1]; 100 μM in osmotic pump, activity, eating, weight, behavior)	estimated systemic concentration after 24 hr ([1]; 100 μM in pump, same assumptions)	IC50 (segments of mouse aorta)	estimated systemic concentration after 24 hr ([1]; 2.4 mM in pump, 1 μl per hour, assuming 2 ml blood volume, no degradation or clearance)	corneal angiogenesis ([1]; 2500 μM in Alzet pump, 67 ng FGF-2 pellet, 7 days)	FGF-induced corneal angiogenesis ([1]; in the pellet with FGF or systemic via osmotic pump, 2.4 mM, 1 μl per hour)	corneal angiogenesis ([1]; incorporated into the pellet)	concentration for 70% inhibition of FGF induced outgrowth (segments of mouse aorta; 30 ng/ml FGF-2, 7 days)	block of VEGF-induced outgrowth (segments of mouse aorta; 10 μM)	block of VEGF-induced outgrowth (segments of mouse aorta; 30 μM)	outgrowth of support cells (non-endothelial) (segments of mouse aorta; aortic ring explants)
SNTETAFTSVLPAGEKPEEGEPVLHVEAEPGFTARDKEKEVTTRPRETV [synstatin82-130]	no ill effects	≤ 1.2 µM	100 nM								
B1				approximately 29 μM	nearly total block of angiogenesis	blocks the FGF-induced angiogenesis	reduced the angiogenesis	approximately 30 μM	more than 70%	greater than 95%	unaffected
